# Assay results published in patent publication US20020058626A1, “Agents for preventing and treating thrombocytopenia” (CHUGAI SEIYAKU KABUSHIKI KAISHA, priority 1996, published 2002).
# Experiments:
# [1] = system: platelet count; assay: Effectiveness of PTH derivative, daily administration to mouse (peripheral platelet count); format: in vivo; conditions: C57B1/6N mice, 200 μg/kg subcutaneous once a day for six days, 24 h after final administration; FIG. 3
# Protocol: Ten-week old male C57B1/6N mice as purchased from Japan Charles River Co., Ltd. were used in the experiment.
# Drug solutions to be administered were prepared basically from human PTH(1-84) and human PTH(1-34) by the same procedure as in Example 1 to give a drug concentration of 20 μg/mL.
# Eighteen mice were divided into three groups, which were administered subcutaneously with the two drug solutions and a control (citrate buffer) for six days on a once-a-day basis in a volume of 10 mL/kg. […] The administration was initiated at 10 a.m.
# After 24 h of the final administration, a blood sample was withdrawn from each mouse through the orbital vein. Peripheral corpuscle counts were obtained with an automatic corpuscle counter F-800 (TOA MEDICAL ELECTRONICS CO., LTD)
# [2] = system: platelet counts; assay: Test for single-dose administration to mouse (peripheral platelet count); format: in vivo; conditions: C57B1/6N mice, single dose 10 μg/kg through the tail vein, 6 and 9 h after the administration; FIG. 1
# Protocol: Nine-week old male C57B1/6N mice as purchased from Japan Charles River Co. Ltd. were used in the experiment.
# Human PTH(1-84) was dissolved in a citrate buffer (pH 5; containing 0.05% of Tween 80) at final concentrations of 1, 0.2 and 0.04 ˜g/mL so as to prepare the drug solutions to be administered.
# Each of the thus prepared drug solutions and a control (citrate buffer) was administered to 15 mice through the tail vein in a volume of 10 mL/kg. […] The administration was initiated at 10 a.m.
# After 3, 6 and 9 hours of the administration, five mice were picked up at random from each group of animals and blood samples were withdrawn through the orbital vein. At 10 a.m. on the same day, separate blood samples were taken from untreated mice (four in number) to obtain the preadministration value. Peripheral corpuscle counts were obtained with an automatic corpuscle counter F-800 (TOA MEDICAL ELECTRONICS CO., LTD.)
# [3] = system: platelet count; assay: Test for daily administration to mouse (peripheral platelet count); format: in vivo; conditions: C57B1/6N mice, subcutaneous once a day, FIG. 2
# Protocol: Nine-week old male C57B1/6N mice as purchased from Japan Charles River Co., Ltd. were used in the experiment.
# Drug solutions to be administered were prepared basically by the same procedure as in Example 1 to give drug concentrations of 5, 20 and 80 μg/mL.
# The mice under test were divided into four groups, which were administered subcutaneously with the three drug solutions and a control (citrate buffer) once a day in a volume of 10 mL/kg. […] The administration was initiated at 10 a.m.
# On days 5, 7 and 9 after the start of administration, five or six mice were picked up at random from each group of animals and blood samples were withdrawn through the orbital vein. The sampling of blood was timed to occur 24 h of the final administration. Separate blood samples were taken from untreated mice (five in number) to obtain the value for normal mouse. Peripheral corpuscle counts were obtained with an automatic corpuscle counter F-800(TOA MEDICAL ELECTRONICS CO., LTD.).
# [4] = system: CFU-GM (precursor cells of granulocytes and macrophages); conditions: report by Meytes et al, J. Clin. Invest. Vol. 67, 1263-1269:1981; cited from earlier work
# [5] = system: BFU-E (precursor cells of erythrocytes); conditions: report by Meytes et al, J. Clin. Invest. Vol. 67, 1263-1269:1981; cited from earlier work
# [6] = system: platelet count; assay: Test for daily administration to rabbit (platelet count); format: in vivo; conditions: three rabbits, FIG. 4
# Protocol: Six 12-15 week old male Japanese albino rabbits JW/CSK were used in the experiment. The animals were individually kept in aluminum rabbit bracket cages Rb-1 (350^w×500^d×350^h mm) in a vavarium in a specific pathogen-free environment under the following conditions: temperature, 24±2° C.; humidity, 50±10%; illumination, light turned on at 5:00 and turned off at 19:00; ventilation, 15 changes/hr. Each animal was supplied with 120 g of a radiation-sterilized feed for rabbits RM (purchased from Funahashi Farm) per day. The animals were also allowed to drink to tap water ad libitum from an automatic water feeder.
# Human PTH(1-84) was administered in a volume of 2 mL/vial at a concentration of 200 μg/mL. A solvent was also supplied in a volume of 2 mL/vial. Both the drug and the control were stored at −135° C. until use.
# PTH (200 μg/kg) was administered to the rabbits subcutaneously at the back of their neck for 13 consecutive days. The solvent was similarly administered in the same volume as the dose of a rh-PTH solution calculated from their body weight.
# Blood samples (0.5 mL) were withdrawn from the rabbits through the lateral auricular vein before the administration and on days 2, 6, 9 and 13 during the administration period. […]
Molecule,platelet increasing action compared with PTH(1-84) [1],platelet counts versus control [2],"platelet count versus control, day 5 ([3]; 200 and 800 μg/kg groups only, day 5, 24 h after final administration)","platelet count versus control, day 7 ([3]; all treated groups (50, 200 and 800 μg/kg), day 7)",in vitro colony formation by CFU-GM [4],in vitro colony formation by BFU-E [5],"platelet count on day 13 ([6]; 200 μg/kg subcutaneous daily for 13 days, day 13)","platelet count relative to the initial value, increase from day 2 until day 6 ([6]; 200 μg/kg subcutaneous daily)"
"human PTH(1-34) (SVSEIQLMHNLGKHLNSMERVEWLRKKLQDVHNF; Parathyroid hormone; UniProt P01270 32-65, looked up, fragment) [PTH(134), partial peptide of PTH composed of 34 amino acids from the N terminus; purchased from Peptide Institute, Inc]",comparable platelet increasing action to PTH(1-84),,,,,,,
"human PTH(1-84) (protein, UniProt P01270 32-115, looked up, Parathyroid hormone) Parathyroid hormone: SVSEIQLMHNLGKHLNSMERVEWLRKKLQDVHNFVALGAPLAPRDAGSQRPRKKEDNVLVESHEKSLGEADKADVNVLTKAKSQ",,significant increase in platelet counts over the control,tendency to increase,significantly higher in platelet count than the control,interfered with,interfered with,substantially returned to the initial level,two to four
